How the values were obtained:
[1] = target: T1, FcγRIIa R (FcγRIIa, allotype R, Arg at position 131), extracellular domain with C-terminal His tag (human, UniProt P12318 34-217); test: Biacore SPR; binding relative to GpH7-A5/GpH7-B3/GpL16-k0 (=100)
T1 construct: extracellular domain; soluble receptor used as Biacore analyte; also called 2aR; FcgRIIa R
T1 sequence (looked up): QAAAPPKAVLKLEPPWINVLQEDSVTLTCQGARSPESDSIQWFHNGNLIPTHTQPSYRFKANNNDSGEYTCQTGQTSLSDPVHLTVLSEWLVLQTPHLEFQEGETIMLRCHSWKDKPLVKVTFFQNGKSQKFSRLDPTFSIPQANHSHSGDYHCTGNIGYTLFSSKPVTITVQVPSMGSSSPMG

[2] = target: T2, FcγRIIb, extracellular domain with C-terminal His tag (human, UniProt P31994 43-217); test: as above
T2 construct: extracellular domain; soluble receptor used as Biacore analyte; also called 2b; FcgRIIb
T2 sequence (looked up): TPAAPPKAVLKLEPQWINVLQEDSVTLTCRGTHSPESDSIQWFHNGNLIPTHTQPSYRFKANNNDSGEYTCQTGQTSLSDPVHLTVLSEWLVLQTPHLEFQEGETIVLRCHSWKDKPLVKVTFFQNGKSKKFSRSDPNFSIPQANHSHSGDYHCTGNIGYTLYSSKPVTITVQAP

[3] = target: T1, FcγRIIa R (FcγRIIa, allotype R, Arg at …); test: Biacore SPR; He/Con_2aR divided by He/Con_2b (FcγRIIb)
Protocol: The heterodimerized antibodies He Abs in which one of the H chains was introduced with an alteration were assayed for their binding activities to each activating FcγR and inhibitory FcγR according to the method described in Example 4. […] The activating FcγRs in FIGS. 26, 27, 28, and 29 are FcγRIa, FcγRIIa (R), FcγRIIa (H), and FcγRIIIa, respectively.
Analysis of interaction between objective antibody and the FcγR was carried out using Biacore T100 (GE Healthcare). HBS-EP+ (GE Healthcare) was used as the running buffer, and the measurement temperature was set to 25° C. Chips produced by immobilizing the antigen peptide by the amine coupling method to a Series S Sencor Chip CM5 (GE Healthcare), or alternatively, chips produced by allowing preliminarily biotinylated antigen peptides to interact with and immobilize onto a Series S Sensor Chip SA (certified) (GE Healthcare) were used. Antibodies of interest were captured onto an antigen peptide-immobilized chip, and allowed to interact to each FcγR diluted with running buffer. To regenerate and repeatedly use the chip, the antibodies captured on the chip were washed off by reacting 10 mM glycine-HCl, pH 1.5.

B1: heterodimerized antibody GpH7-A5/GpH7-B3 variant N325_06M/GpL16-k0 (antibody, human IgG1, kappa)
heavy 1: not shown
heavy 2: not shown
light: DIVMTQSPLSLPVTPGEPASISCQASESLVHSNRNTYLHWYLQKPGQSPQLLIYKVSNRFSGVPDRFSGSGSGTDFTLKISRVEAEDVGVYYCSQNTHVPPTFGQGTKVEIERTVAAPSVFIFPPSDEQLKSGTASVVCLLNNFYPREAKVQWKVDNALQSGNSQESVTEQDSKDSTYSLSSTLTLSKADYEKHKVYACEVTHQGLSSPVTKSFNRGEC
notes: He Ab: anti-glypican-3 IgG1, alteration in one H chain only; also called He Ab
Which results are given for B1?
He/Con_2aR (IIaR binding) [1]: 152 % of control; He/Con_2b (IIb binding) [2]: 217 % of control; IIaR/IIb (He_2aR/2b) [3]: 0.7

B2: heterodimerized antibody GpH7-A5/GpH7-B3 variant N325_07I/GpL16-k0 (antibody, human IgG1, kappa)
heavy 1: not shown
heavy 2: not shown
light: DIVMTQSPLSLPVTPGEPASISCQASESLVHSNRNTYLHWYLQKPGQSPQLLIYKVSNRFSGVPDRFSGSGSGTDFTLKISRVEAEDVGVYYCSQNTHVPPTFGQGTKVEIERTVAAPSVFIFPPSDEQLKSGTASVVCLLNNFYPREAKVQWKVDNALQSGNSQESVTEQDSKDSTYSLSSTLTLSKADYEKHKVYACEVTHQGLSSPVTKSFNRGEC
notes: as for B1
B2 was tested. Which “He/Con_2aR (IIaR binding)” value [1] did it give?
Its value is 133 % of control.

What about the “He/Con_2b (IIb binding)” value [2] of the same binder?
The value was 171 % of control.

And the “IIaR/IIb (He_2aR/2b)” value [3]?
Its value is 0.78.

B3: heterodimerized antibody GpH7-A5/GpH7-B3 variant N325_08L/GpL16-k0 (antibody, human IgG1, kappa)
heavy 1: not shown
heavy 2: not shown
light: DIVMTQSPLSLPVTPGEPASISCQASESLVHSNRNTYLHWYLQKPGQSPQLLIYKVSNRFSGVPDRFSGSGSGTDFTLKISRVEAEDVGVYYCSQNTHVPPTFGQGTKVEIERTVAAPSVFIFPPSDEQLKSGTASVVCLLNNFYPREAKVQWKVDNALQSGNSQESVTEQDSKDSTYSLSSTLTLSKADYEKHKVYACEVTHQGLSSPVTKSFNRGEC
notes: as for B1
Which “He/Con_2aR (IIaR binding)” value [1] does the source give for B3 here?
The value was 144 % of control.

And the “He/Con_2b (IIb binding)” value [2]?
The value was 197 % of control.

What about the “IIaR/IIb (He_2aR/2b)” value [3] of the same binder?
Its value is 0.73.

B4: heterodimerized antibody GpH7-A5/GpH7-B3 variant N325_20W/GpL16-k0 (antibody, human IgG1, kappa)
heavy 1: not shown
heavy 2: not shown
light: DIVMTQSPLSLPVTPGEPASISCQASESLVHSNRNTYLHWYLQKPGQSPQLLIYKVSNRFSGVPDRFSGSGSGTDFTLKISRVEAEDVGVYYCSQNTHVPPTFGQGTKVEIERTVAAPSVFIFPPSDEQLKSGTASVVCLLNNFYPREAKVQWKVDNALQSGNSQESVTEQDSKDSTYSLSSTLTLSKADYEKHKVYACEVTHQGLSSPVTKSFNRGEC
notes: as for B1
Which “He/Con_2aR (IIaR binding)” value [1] does the source give for B4 here?
Its value is 134 % of control.

And the “He/Con_2b (IIb binding)” value [2]?
Its value is 169 % of control.

And the “IIaR/IIb (He_2aR/2b)” value [3]?
The value was 0.79.

B5: heterodimerized antibody GpH7-A5/GpH7-B3 variant P238_04F/GpL16-k0 (antibody, human IgG1, kappa)
heavy 1: not shown
heavy 2: not shown
light: DIVMTQSPLSLPVTPGEPASISCQASESLVHSNRNTYLHWYLQKPGQSPQLLIYKVSNRFSGVPDRFSGSGSGTDFTLKISRVEAEDVGVYYCSQNTHVPPTFGQGTKVEIERTVAAPSVFIFPPSDEQLKSGTASVVCLLNNFYPREAKVQWKVDNALQSGNSQESVTEQDSKDSTYSLSSTLTLSKADYEKHKVYACEVTHQGLSSPVTKSFNRGEC
notes: as for B1
For B5, which “He/Con_2aR (IIaR binding)” value [1] is on record?
Its value is 174 % of control.

What about the “He/Con_2b (IIb binding)” value [2] of the same binder?
The value was 312 % of control.

And the “IIaR/IIb (He_2aR/2b)” value [3]?
The value was 0.56.

B6: heterodimerized antibody GpH7-A5/GpH7-B3 variant P238_08L/GpL16-k0 (antibody, human IgG1, kappa)
heavy 1: not shown
heavy 2: not shown
light: DIVMTQSPLSLPVTPGEPASISCQASESLVHSNRNTYLHWYLQKPGQSPQLLIYKVSNRFSGVPDRFSGSGSGTDFTLKISRVEAEDVGVYYCSQNTHVPPTFGQGTKVEIERTVAAPSVFIFPPSDEQLKSGTASVVCLLNNFYPREAKVQWKVDNALQSGNSQESVTEQDSKDSTYSLSSTLTLSKADYEKHKVYACEVTHQGLSSPVTKSFNRGEC
notes: as for B1
Which results are given for B6?
He/Con_2aR (IIaR binding) [1]: 140 % of control; He/Con_2b (IIb binding) [2]: 204 % of control; IIaR/IIb (He_2aR/2b) [3]: 0.68

B7: heterodimerized antibody GpH7-A5/GpH7-B3 variant P238_09D/GpL16-k0 (antibody, human IgG1, kappa)
heavy 1: not shown
heavy 2: not shown
light: DIVMTQSPLSLPVTPGEPASISCQASESLVHSNRNTYLHWYLQKPGQSPQLLIYKVSNRFSGVPDRFSGSGSGTDFTLKISRVEAEDVGVYYCSQNTHVPPTFGQGTKVEIERTVAAPSVFIFPPSDEQLKSGTASVVCLLNNFYPREAKVQWKVDNALQSGNSQESVTEQDSKDSTYSLSSTLTLSKADYEKHKVYACEVTHQGLSSPVTKSFNRGEC
notes: as for B1
How did the “He/Con_2aR (IIaR binding)” value [1] turn out when B7 was run?
Its value is 148 % of control.

And the “He/Con_2b (IIb binding)” value [2]?
Its value is 221 % of control.

And the “IIaR/IIb (He_2aR/2b)” value [3]?
The value was 0.67.
